The values that follow come from patent publication US20250276077A1 (IMMUNOME, published 2025).

The target of assay [1] is T1, Human EphA2 (ephrin receptor A2) on cells (human, UniProt P29317 25-976). Briefly: cell-based or functional assay.
The target in assay [2] is T1, Human EphA2 (ephrin receptor A2) on …. The assay can be described thus: cell-based or functional assay. The source holds these as a separate data set.
Assay [3] has the same target. The assay can be described thus: cell-based or functional assay. This is another data set of the same source.
The target of assay [4] is T2, C-terminally His-tagged hEphA2-FN2 (Thr437-Asn534+His tag) (human, UniProt P29317 437-534).
T2 construct: also called FN2 domain of hEphA2
T2 sequence (P29317 437-534 limits assumed): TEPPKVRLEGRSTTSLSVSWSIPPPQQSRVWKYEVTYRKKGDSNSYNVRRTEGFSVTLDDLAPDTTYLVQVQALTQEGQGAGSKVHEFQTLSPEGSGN
The assay can be described thus: SPR Biacore T200, 25 C; mIgG2a as immobilized ligand, hEphA2-FN2-His analyte. Here is the method:
Binding of EphA2 antibodies to the FN2 domain of hEphA2 was measured using the Biacore® T200 SPR system. Biacore® assays were conducted at 25° C. using HBS-EP+ buffer (0.01 M HEPES pH 7.4, 0.15 M NaCl, 3 mM EDTA, 0.005% v/v Surfactant P20) using the FN2 domain as the analyte with the antibodies in mIgG2a format as the immobilized ligand. Data was analyzed using 1:1 Langmuir binding model and steady-state model in Biacore Evaluation software.
C-terminally His-tagged human EphA2 FN2 domain (Thr437-Asn534+His tag) was used as the analyte. The analyte was associated for 120 seconds and dissociated for 100 seconds or 300 seconds at 30 μL/min.
A general note: In SPR one partner is held on a chip, and binding of the other changes the refractive index at the surface.

Assay [5] addresses T2, C-terminally His-tagged hEphA2-FN2 …. Briefly: SPR Biacore T200, 25 C; mIgG2a captured by anti-mouse Fc, hEphA2-FN2-His analyte; steady-state monovalent KD. The protocol:
Binding of antibodies to the FN2 domain of hEphA2 was measured using the Biacore® T200 SPR system at 25° C. using HBS-EP+ buffer (0.01 M HEPES pH 7.4, 0.15 M NaCl, 3 mM EDTA, 0.005% v/v Surfactant P20). Antibodies in mIgG2a format were captured at levels between 475-715 RU via an anti-mouse Fc antibody immobilized to a CM5 chip. Binding was assessed using a titration of C-terminally His-tagged hEphA2-FN2 (Thr437-Asn534+His tag) associated for 30 s or 75 s at 30 μL/min. Data was double-reference subtracted using both a surface without captured antibody and from injections of HBS-EP+ buffer. The equilibrium response was measured at 4 seconds before the end of association with a window of 5 seconds and fit using the Biacore T200 Evaluation Software 3.1 with the Steady State Affinity Model.

Residue numbers refer to the chain shown, from its start.

T1 sequence (P29317 25-976): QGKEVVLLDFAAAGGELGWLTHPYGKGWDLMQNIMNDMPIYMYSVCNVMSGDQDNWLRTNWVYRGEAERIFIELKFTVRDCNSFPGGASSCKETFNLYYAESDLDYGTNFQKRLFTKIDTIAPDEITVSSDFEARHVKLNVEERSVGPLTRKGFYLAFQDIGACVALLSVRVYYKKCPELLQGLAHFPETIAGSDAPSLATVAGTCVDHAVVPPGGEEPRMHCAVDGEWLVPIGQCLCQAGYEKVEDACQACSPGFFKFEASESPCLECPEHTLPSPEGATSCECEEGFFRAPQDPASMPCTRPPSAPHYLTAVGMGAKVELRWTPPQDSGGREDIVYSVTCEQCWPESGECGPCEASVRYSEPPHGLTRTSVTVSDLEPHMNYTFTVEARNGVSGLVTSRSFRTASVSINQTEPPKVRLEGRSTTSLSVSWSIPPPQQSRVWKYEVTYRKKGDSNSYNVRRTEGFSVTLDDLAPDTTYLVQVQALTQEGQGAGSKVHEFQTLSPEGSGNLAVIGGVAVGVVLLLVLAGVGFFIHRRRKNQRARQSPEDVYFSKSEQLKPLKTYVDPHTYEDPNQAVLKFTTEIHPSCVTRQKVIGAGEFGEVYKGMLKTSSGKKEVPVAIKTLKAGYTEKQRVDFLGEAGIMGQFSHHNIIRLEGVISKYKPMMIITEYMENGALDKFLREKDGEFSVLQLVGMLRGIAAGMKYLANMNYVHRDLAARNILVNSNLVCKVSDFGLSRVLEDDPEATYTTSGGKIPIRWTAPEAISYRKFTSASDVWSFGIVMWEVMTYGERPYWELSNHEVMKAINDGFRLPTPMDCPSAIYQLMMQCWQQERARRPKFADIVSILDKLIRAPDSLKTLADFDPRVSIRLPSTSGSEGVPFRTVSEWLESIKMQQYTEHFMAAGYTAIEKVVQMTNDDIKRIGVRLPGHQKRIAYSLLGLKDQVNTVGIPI

B1: AB-010357 (antibody, mouse IgG2a, V domains shown)
VH: QVQLQQWGAGLLKPSETLSLTCAVYGGSFSDYYWSWIRQPPGKGLEWIGEINHRGSINYNNYNPSLKSRVTISVDTSKNQFSLKLSSVTAADTAVYYCAKPLRPHCTNGVCYSGDAFDIWGQGTMVTVAS
VL: SYVLTQPPSVSVAPGQTARITCGGNNIGSKNVHWYQQKPGQAPVLVVYDDSDRPSGIPEQFSGSNSGNTATLTISRVEAGDEADYYCQVWDSSSDHVVFGGGTKLTVL
Turning to B1, the “ADCC EC50 (nM), parent, A549” value in assay [1] is 10.9 nM. Also, in assay [2], the “ADCC EC50” value amounted to 11.6 nM and the “ADCC Fold-improved (against AB-008873)” value came to 3 fold. Besides, in assay [3], the “ADCC - EC50 (nM), Trial 1, A549” value was found to be 12.3 nM and the “ADCC - EC50 (nM), Trial 2, A549” value was 9.6 nM.

B2: AB-010361 (antibody, mouse IgG2a, V domains shown)
VH: B1 VH with D31G
VL: B1 VL
As for B2, in assay [1], the “ADCC EC50 (nM), parent, A549” value was 3.1 nM. In assay [2], the “ADCC EC50” value is 3.1 nM and the “ADCC Fold-improved (against AB-008873)” value was 11.2 fold. Moreover, in assay [3], the “ADCC - EC50 (nM), Trial 1, A549” value came out at 4 nM and the “ADCC - EC50 (nM), Trial 2, A549” value is 2.2 nM.

B3: AB-010363 (antibody, V domains shown)
VH: B1 VH with D31G
VL: B1 VL with Q60R
In the case of B3, the “ADCC EC50 (nM), parent, A549” value in assay [1] worked out at 4.65 nM. In assay [2], the “ADCC EC50” value turned out to be 9.5 nM and the “ADCC Fold-improved (against AB-008873)” value stood at 3.66 fold. Further, in assay [3], the “ADCC - EC50 (nM), Trial 1, A549” value was determined as 5.1 nM and the “ADCC - EC50 (nM), Trial 2, A549” value turned out to be 4.2 nM.

B4: AB-010699 (mouse IgG2a format) (antibody, V domains shown)
VH: B1 VH with D31G, T107I
VL: B1 VL with S29Y, Q60R, S92H
notes: tested in mIgG2a format
On to B4, for which, in assay [4], the Kd turned out to be 19 nM, the koff was determined as 0.075 s⁻¹ and the kon came out at 3.9e+06 M⁻¹ s⁻¹. In addition, the dissociation constant Kd in assay [5] worked out at 18.9 nM.

Usually Kd stands for a measure of binding affinity in units of concentration. Low values mean higher affinity, high ones lower affinity. One may read the koff as a measure of how fast the partners let go of each other. Higher therefore signals a short-lived complex. The kon is a measure of how fast the partners come together.
